In patent publication US20220146528A1 (NORDIC BIOSCIENCE A S, published 2022):
No end group written: not given here.

T1: elongation of the selection peptide AGIATKGLNGP (human)
T1 construct: Synthetic peptide: the selection peptide with one alanine added at the N-terminus; also called elongated peptide; N-extended elongated version
T1 peptide: AGIATKGLNGP

T2: truncation of the selection peptide IATKGLNGP (human)
T2 construct: Synthetic peptide: the selection peptide without its N-terminal glycine; also called truncated peptide; N-truncated shortened version
T2 peptide: IATKGLNGP

T3: biotinylated synthetic peptide GIATKGLNGP-k(Biotin) (human, not fully specified (C-terminus); also: lowercase k not explained)
T3 construct: Captured on streptavidin-coated microplates; also called biotinylated peptide; coater peptide
T3 peptide: H-GIATKGLNGP

B1: selection peptide GIATKGLNGP (peptide)
peptide: H-GIATKGLNGP
B2: monoclonal antibody NB117-2F4 (antibody, mouse IgG2b, kappa, V domains shown)
VH: EVQLQESGPSLVKPSQTLSLTCSVTGDSITSGFWSWIRKFPGNKLEFMGYIKYSGDTYFNPSLKSRISITRDTSKNQYYLQLNSVTPEDTATYYCSDMDYWGQGTSVTVSS
VL: DVVMTQTPRSLPVSLGDQASISCRSSQSLVHNNGNTYLHWYLQMPGQSPKLLIYKVSNRFSGVPDRFSGSGSGTDFTLKISRVEAEDLGVYFCSQITHVPWTFGGGTKLEIKR
notes: also called mAb

Columns and labels:
[1] = target: B2; assay: competitive ELISA (Col10neo): peptide standard competes with the coated …-k(Biotin) for 2F4
Procedure: A purified monoclonal antibody was first tested for peptide-binding specificity by three synthetic peptides, selection peptide ([…]; SEQ ID NO: 1), elongation of the selection peptide ([…]; SEQ ID NO: 3) and truncation of the selection peptide ([…]; SEQ ID NO: 4), and then used in a competitive immunoassay. After optimization with buffer, temperature, incubation time and concentrations for key reagents, the final protocol for detection of ⁴⁷⁹GIATKG (SEQ ID NO: 2) assay was developed as follows: a 96-well streptavidin pre-coated micro plate was coated with 1 ng/ml biotinylated peptide, […]-k(Biotin) (SEQ ID NO: 5) dissolved in 50 mM PBS-BTB buffer (phosphate-buffered saline with bovine serum albumin and Tween-20, pH7.4) for 30 min at 20° C. Then, the plate was washed 5 times by standard wash buffer (20 mM Tris, 50 mM NaCl, pH 7.2). […] The colorimetric reaction was stopped by adding 100 μL stopping solution (1% H₂SO₄) and measured at 450 nm with 650 nm as the reference.
The inter- and intra-plate variation were determined by 10 independent runs of quality control panel (three human sera and two peptide standard) in duplicate. The lower limit of detection (LLOD) was calculated as 3SD of the mean value of 21 zero standard. […] Percent recovery was calculated as the measured concentration divided by the expected concentration corrected for dilution.

[2] = target: B1; assay: competitive ELISA, displacement of 2F4 from the coated biotinylated peptide
Procedure: (§1) A purified monoclonal antibody was first tested for peptide-binding specificity by three synthetic peptides, selection peptide ([…]; SEQ ID NO: 1), elongation of the selection peptide ([…]; SEQ ID NO: 3) and truncation of the selection peptide ([…]; SEQ ID NO: 4), and then used in a competitive immunoassay. After optimization with buffer, temperature, incubation time and concentrations for key reagents, the final protocol for detection of ⁴⁷⁹GIATKG (SEQ ID NO: 2) assay was developed as follows: a 96-well streptavidin pre-coated micro plate was coated with 1 ng/ml biotinylated peptide, […]-k(Biotin) (SEQ ID NO: 5) dissolved in 50 mM PBS-BTB buffer (phosphate-buffered saline with bovine serum albumin and Tween-20, pH7.4) for 30 min at 20° C. Then, the plate was washed 5 times by standard wash buffer (20 mM Tris, 50 mM NaCl, pH 7.2). 20 μL of the peptide standards, kit controls or samples were added to appropriate wells, followed by 100 μL of 23 ng/ml monoclonal antibody in 50 mM PBS-BTB buffer containing 5% Osteocalcin EIA Puf-Liq (Roche diagnostics, Germany), and incubated overnight (20±1 hr) at 4° C. After 5 times wash, 100 μL of goat anti-mouse secondary antibody (115-035-003, Jackson ImmunoResearch) was added and incubated for 1 hr at 20° C. After this step, the plate was washed for 5 times with wash buffer. Finally, 100 μL 3,3′,5,5′-tetramethylbenzidine (TMB) was added to each well and incubated for 15 min at 20° C. in the dark. The colorimetric reaction was stopped by adding 100 μL stopping solution (1% H₂SO₄) and measured at 450 nm with 650 nm as the reference.

[3] = target: T1, elongation of the selection peptide …; assay: as above
Procedure: as §1

[4] = target: T2, truncation of the selection peptide …; assay: as above
Procedure: as §1

[5] = target: T3, biotinylated synthetic peptide …; assay: competitive ELISA, biotinylated peptide on streptavidin plate (FIG. 1 legend)
Procedure: as §1, with “After this step, the plate was washed for 5 times with wash buffer. Finally, 100 μL 3,3′,5,5′-tetramethylbenzidine (TMB) was added to each well and incubated for 15 min at 20° C. in the dark.” left out

Row | IC50 [1] | binding result [2] | binding result [3] | binding result [4] | binding result [5] | Binder
1 | 0.0419 µg/mL | – | – | – | – | B1
2 | – | binds | no binding (tested: 1000 ng/mL) | no binding (tested: 1000 ng/mL) | binds | B2
